These are literature values, as cited in PMC12404997.

pKd: −log10 of the molar value.

The series has as its target RhoA (Homo sapiens) (UniProt P61586).
Sequence of UniProt P61586 (P61586 1-190): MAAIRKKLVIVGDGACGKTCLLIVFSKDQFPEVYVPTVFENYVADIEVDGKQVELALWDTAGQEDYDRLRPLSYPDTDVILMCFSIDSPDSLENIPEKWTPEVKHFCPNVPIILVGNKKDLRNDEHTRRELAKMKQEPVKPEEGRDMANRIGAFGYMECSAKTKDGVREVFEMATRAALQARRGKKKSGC

Take anillin (from UniProt Q9NQW6): the pKd (commonly the negative decadic logarithm of the Kd, by convention in mol/L) is 5.15.
